Data on 2 proteins can be found in paper PMC10978848, “Insights into the dual nature of αB-crystallin chaperone activity from the p.P39L mutant at the N-terminal region” (Scientific Reports, 2024).

The data set deals with the molecule itself. In words: AUC; sedimentation velocity, 40,000 rpm, 20 °C, absorbance at 280 nm, buffer A (50 mM sodium phosphate, pH 7.4); masses from c(M) after Schuck; size of the oligomer.

B1: human αB-crystallin, wild-type (natural protein, UniProt P02511 1-175, looked up)
chain: MDIAIHHPWIRRPFFPFHSPSRLFDQFFGEHLLESDLFPTSTSLSPFYLRPPSFLRAPSWFDTGLSEMRLEKDRFSVNLDVKHFSPEELKVKVLGDVIEVHGKHEERQDEHGFISREFHRKYRIPADVDPLTITSSLSSDGVLTVNGPRKQVSGPERTIPITREEKPAVTAAPKK
notes: human αB-crystallin (CRYAB, HspB5); It names no tag; also called CRYAB; HspB5; source: E. coli, IPTG-induced, purified (anion exchange, DEAE cellulose); copies: 24
For B1, the “stoichiometry N” value was determined as 24 subunits.

B2: human αB-crystallin p.P39L mutant (natural protein, UniProt P02511 1-175, looked up)
chain: MDIAIHHPWIRRPFFPFHSPSRLFDQFFGEHLLESDLFLTSTSLSPFYLRPPSFLRAPSWFDTGLSEMRLEKDRFSVNLDVKHFSPEELKVKVLGDVIEVHGKHEERQDEHGFISREFHRKYRIPADVDPLTITSSLSSDGVLTVNGPRKQVSGPERTIPITREEKPAVTAAPKK
notes: human αB-crystallin (CRYAB, HspB5) with the variant p.P39L, which was found in a patient; It names no tag; also called p.P39L αB-Cry; mutant αB-Cry; source: E. coli, IPTG-induced, purified (anion exchange, DEAE cellulose); copies: 48
For B2, the “stoichiometry N” value turned out to be 48 subunits.
